Assay results reported in US20170224836A1 (Novartis, published 2017).
Changes are numbered by the printed parent chain. Like-named read-outs stand apart in the source and are kept apart here.

Columns and labels:
[1] = target: T1, human CDH6 on cells (human, UniProt P55285 54-790); test: FACS on OVCAR3 cells
T1 sequence: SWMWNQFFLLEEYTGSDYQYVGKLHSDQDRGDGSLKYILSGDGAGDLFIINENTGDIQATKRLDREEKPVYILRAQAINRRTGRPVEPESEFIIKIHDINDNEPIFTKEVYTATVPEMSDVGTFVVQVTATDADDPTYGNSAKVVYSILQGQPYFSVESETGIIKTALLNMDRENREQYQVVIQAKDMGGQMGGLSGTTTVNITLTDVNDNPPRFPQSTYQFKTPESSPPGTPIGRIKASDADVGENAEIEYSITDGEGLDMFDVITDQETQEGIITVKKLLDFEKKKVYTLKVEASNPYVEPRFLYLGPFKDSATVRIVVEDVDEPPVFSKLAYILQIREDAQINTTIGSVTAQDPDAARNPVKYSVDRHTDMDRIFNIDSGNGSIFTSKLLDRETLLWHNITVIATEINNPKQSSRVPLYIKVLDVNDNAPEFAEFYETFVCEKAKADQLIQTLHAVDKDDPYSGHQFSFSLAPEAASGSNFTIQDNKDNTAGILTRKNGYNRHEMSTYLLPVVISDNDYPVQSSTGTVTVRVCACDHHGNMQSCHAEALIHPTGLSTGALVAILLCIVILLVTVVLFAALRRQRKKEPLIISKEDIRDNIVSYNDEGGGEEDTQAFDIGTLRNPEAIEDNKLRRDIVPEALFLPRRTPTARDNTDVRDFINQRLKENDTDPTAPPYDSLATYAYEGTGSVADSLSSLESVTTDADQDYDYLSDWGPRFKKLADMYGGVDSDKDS

[2] = target: T2, cynomolgus CDH6 on cells (cynomolgus, UniProt A0A2K5TW62 54-790); test: FACS on CHO-cynoCDH6 cells
T2 sequence: T1 sequence with Y300H, H457R, A707G

[3] = target: T3, hCDH6aa54-615 APPavi (human, UniProt P55285 54-615); test: SPR binning
T3 sequence: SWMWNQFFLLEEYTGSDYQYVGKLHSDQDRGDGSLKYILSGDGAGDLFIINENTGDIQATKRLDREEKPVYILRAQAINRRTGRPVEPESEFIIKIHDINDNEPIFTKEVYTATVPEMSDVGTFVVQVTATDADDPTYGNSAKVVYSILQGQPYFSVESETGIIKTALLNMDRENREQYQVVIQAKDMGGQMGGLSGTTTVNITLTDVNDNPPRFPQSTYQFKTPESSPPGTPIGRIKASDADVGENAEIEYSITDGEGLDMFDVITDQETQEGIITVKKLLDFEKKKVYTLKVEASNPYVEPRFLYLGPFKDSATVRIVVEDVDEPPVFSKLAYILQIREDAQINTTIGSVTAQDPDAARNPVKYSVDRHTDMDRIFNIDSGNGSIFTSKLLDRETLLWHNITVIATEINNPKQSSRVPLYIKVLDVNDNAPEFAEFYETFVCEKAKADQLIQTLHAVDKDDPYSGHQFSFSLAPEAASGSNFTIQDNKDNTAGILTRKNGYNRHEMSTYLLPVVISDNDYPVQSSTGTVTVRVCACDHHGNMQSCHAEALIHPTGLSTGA

[4] = target: T3, hCDH6aa54-615 APPavi; test: SPR binning; remark: listed apart in the source
[5] = target: T3, hCDH6aa54-615 APPavi; test: SPR binning; remark: listed apart in the source
[6] = target: T3, hCDH6aa54-615 APPavi; test: SPR binning; remark: listed apart in the source
[7] = target: T3, hCDH6aa54-615 APPavi; test: SPR binning; remark: listed apart in the source
[8] = target: T3, hCDH6aa54-615 APPavi; test: SPR binning; remark: listed apart in the source

B1: NOV0712 (antibody, human IgG1, kappa, V domains shown)
VH: QVQLLESGGGLVQPGGSLRLSCAASGFTFSSHGMHWVRQAPGKGLEWVSVISGSGSNTGYADSVKGRFTISRDNSKNTLYLQMNSLRAEDTAVYYCARQWGSYAFDSWGQGTLVTVSS
VL: DIQMTQSPSSLSASVGDRVTITCRASQSISSYLNWYQQKPGKAPKLLIYAVSTLQSGVPSRFSGSGSGTDFTLTISSLQPEDFATYYCQQSGTFPPTTFGQGTKVEIKR
[1]
  EC50 (read off the curve): ~400 pM
[2]
  EC50 (read off the curve): ~1 nM
[3]
  response of secondary antibody on primary antibody-CDH6 complex: -1.82
[4]
  response of secondary antibody on primary antibody-CDH6 complex: 16.5
[5]
  response of secondary antibody on primary antibody-CDH6 complex: 9.51
[6]
  response of secondary antibody on primary antibody-CDH6 complex: 5.12
[7]
  response of secondary antibody on primary antibody-CDH6 complex: 6
[8]
  response of secondary antibody on primary antibody-CDH6 complex: -3.26
